In patent US20120129237A1:

Target: LDLR (LDL receptor) of HepG2 cells (UniProt P01130)
Assay: cell-based or functional assay

LDL uptake assay (DiI-LDL, HepG2 cells) (% more function than wildtype PCSK9): 50
Substance: PCSK9c polypeptide (novel PCSK9 variant) (from UniProt Q8NBP7 175-692) (enzyme)
